Reference: publication PMC5940305, “The Rab11-binding protein RELCH/KIAA1468 controls intracellular cholesterol distribution” (The Journal of Cell Biology, 2018)
Blank lines part the entries; values can stand above or below the molecule they belong to.

What was measured:
[1] = target: T1, OSBP (Homo sapiens, UniProt P22059); experiment: liposome sterol transfer, DHE to dansyl-PE FRET; type: biochemical; conditions: lipid transfer substrate (not catalysis); with RELCH, Rab11a(Q70A)-His/GTP and myristoylated Arf1(Q71L)-Flag; RE-like donor and Golgi-like PI4P acceptor liposomes; 200 nM OSBP; pH 7.2; room temperatur
T1 construct: full-length, Flag-tagged, tag kept; 807 residues (deletion series ends at 807)

[2] = target: T2, His-RELCH (mouse, UniProt Q148V7 1-1216); experiment: pull-down; 0.5 µg His-RELCH on Ni-NTA beads, 0.5 µg Flag-OSBP in 20 mM Hepes-NaOH pH 7.5, 100 mM NaCl, 5 mM MgCl2 with ethanol, cholesterol or 25-OH, 1 h at 4°C; immunoblot with His and Flag antibodies; conditions: both partners purified
T2 construct: RELCH/KIAA1468, mouse, cDNA NM_173187.3 amplified from a mouse embryo cDNA library; no limits are stated for this construct (deletion constructs are named by their ranges); also called purified recombinant RELCH; His-RELCH protein; source: E. coli XL-1 blue (pQE32tev), purified (Ni-NTA agarose); not shown: His, N-terminal, kept
T2 sequence (looked up): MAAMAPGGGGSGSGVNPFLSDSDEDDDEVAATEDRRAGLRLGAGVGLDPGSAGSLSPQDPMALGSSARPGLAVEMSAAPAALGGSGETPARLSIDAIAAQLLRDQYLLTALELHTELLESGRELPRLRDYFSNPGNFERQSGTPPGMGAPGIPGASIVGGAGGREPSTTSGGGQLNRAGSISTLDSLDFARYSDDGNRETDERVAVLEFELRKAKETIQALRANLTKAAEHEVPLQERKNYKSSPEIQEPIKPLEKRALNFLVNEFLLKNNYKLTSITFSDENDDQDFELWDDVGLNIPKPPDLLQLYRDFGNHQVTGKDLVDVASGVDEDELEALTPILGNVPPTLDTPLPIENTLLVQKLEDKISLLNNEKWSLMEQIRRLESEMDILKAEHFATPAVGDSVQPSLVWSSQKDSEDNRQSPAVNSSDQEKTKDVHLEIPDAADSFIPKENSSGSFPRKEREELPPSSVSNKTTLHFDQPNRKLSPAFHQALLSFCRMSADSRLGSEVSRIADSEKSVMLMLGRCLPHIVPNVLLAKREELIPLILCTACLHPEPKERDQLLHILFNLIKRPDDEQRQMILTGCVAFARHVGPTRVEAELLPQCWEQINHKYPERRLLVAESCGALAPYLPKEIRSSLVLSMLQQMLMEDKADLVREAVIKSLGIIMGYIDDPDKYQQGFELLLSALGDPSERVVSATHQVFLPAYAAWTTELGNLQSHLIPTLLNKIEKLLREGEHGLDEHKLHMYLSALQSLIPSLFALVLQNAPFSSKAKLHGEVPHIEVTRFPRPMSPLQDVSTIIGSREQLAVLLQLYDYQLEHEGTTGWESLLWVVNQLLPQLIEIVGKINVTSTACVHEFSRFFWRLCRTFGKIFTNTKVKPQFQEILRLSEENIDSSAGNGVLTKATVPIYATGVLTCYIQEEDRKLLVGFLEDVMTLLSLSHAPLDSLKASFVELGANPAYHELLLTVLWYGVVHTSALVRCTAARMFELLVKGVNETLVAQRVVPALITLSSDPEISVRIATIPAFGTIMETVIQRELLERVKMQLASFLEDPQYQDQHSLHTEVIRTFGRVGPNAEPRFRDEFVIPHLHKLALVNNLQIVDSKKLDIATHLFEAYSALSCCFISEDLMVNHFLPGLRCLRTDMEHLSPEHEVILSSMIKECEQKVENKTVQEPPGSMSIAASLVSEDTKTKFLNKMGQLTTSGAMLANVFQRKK

[3] = target: T3, untagged RELCH (mouse, UniProt Q148V7 1-1216); experiment: silica bead-based liposome binding assay; silica beads coated with RE-like liposomes (DOGS-NTA(Ni), Rho-PE) prebound with 5 µM Rab11a (Q70A)-His, then 200 nM untagged RELCH, 30 min at 4°C in HKM buffer with 1 mM GTP and BSA; stained with Rab11 or RELCH antibodies; conditions: both partners purified
T3 construct: RELCH/KIAA1468, mouse, cDNA NM_173187.3, with an N-terminal PreScission protease recognition site; no limits are stated; Residues of the PreScission site may be left at the N-terminus after cleavage; source: E. coli XL-1 blue (pQE32), purified (Ni-NTA agarose), His tag removed with PreScission protease; not shown: His, N-terminal, cleaved
T3 sequence (looked up): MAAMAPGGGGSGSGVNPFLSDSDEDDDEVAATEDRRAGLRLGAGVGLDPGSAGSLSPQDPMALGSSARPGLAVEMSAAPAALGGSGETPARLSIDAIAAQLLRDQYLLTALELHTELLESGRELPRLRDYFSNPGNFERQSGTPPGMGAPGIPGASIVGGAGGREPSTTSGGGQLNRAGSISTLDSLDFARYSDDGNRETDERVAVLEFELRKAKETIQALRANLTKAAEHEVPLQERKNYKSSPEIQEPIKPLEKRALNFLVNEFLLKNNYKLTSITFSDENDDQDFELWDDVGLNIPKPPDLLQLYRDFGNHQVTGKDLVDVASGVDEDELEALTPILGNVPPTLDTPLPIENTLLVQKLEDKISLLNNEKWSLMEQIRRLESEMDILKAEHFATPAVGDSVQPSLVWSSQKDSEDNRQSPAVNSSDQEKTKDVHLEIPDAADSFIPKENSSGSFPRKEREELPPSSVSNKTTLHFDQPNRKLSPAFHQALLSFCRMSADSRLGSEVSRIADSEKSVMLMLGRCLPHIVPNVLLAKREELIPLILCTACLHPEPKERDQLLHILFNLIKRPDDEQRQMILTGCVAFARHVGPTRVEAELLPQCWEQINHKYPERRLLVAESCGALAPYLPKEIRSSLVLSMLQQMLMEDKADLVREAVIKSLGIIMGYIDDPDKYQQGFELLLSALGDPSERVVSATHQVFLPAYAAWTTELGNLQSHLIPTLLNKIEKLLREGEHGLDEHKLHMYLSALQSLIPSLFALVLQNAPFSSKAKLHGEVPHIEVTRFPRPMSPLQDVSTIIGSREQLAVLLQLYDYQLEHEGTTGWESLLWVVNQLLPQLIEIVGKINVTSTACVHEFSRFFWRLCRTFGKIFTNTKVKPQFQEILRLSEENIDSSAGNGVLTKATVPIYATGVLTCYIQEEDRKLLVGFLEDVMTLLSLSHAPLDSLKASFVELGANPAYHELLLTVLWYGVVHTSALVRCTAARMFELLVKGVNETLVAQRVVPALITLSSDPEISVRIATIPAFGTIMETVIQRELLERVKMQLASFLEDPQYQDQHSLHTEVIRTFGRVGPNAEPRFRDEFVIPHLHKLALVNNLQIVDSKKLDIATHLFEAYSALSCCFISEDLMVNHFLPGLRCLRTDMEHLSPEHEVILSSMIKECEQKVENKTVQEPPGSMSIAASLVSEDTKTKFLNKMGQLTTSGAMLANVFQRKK

[4] = target: T4, GST-RELCH_(497-779) (Rab-binding domain) (mouse, UniProt Q148V7 497-779); experiment: pull-down; 10 µg GST-RELCH (RBD) on 20 µl Glutathione Sepharose 4B, 10 µg Rab11a (Q70A)-His loaded with GTP in 500 µl; immunoblot with Rab11 and GST antibodies; conditions: both partners purified
T4 construct: also called GST-RELCH (RBD); source: E. coli Rosetta II (pFAT2), purified (Ni-NTA agarose); not shown: GST, N-terminal, kept
T4 sequence (looked up): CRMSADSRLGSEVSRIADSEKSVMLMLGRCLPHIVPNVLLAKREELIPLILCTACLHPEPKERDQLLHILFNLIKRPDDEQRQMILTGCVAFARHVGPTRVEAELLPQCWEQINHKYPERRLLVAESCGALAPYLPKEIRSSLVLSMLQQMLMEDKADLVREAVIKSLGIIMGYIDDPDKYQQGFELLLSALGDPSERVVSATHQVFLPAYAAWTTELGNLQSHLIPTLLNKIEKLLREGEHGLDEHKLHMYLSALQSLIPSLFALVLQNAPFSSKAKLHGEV

[5] = target: T2, His-RELCH; experiment: pull-down; 10 µg GST-Rab11a Q70A (GTP) on 20 µl Glutathione Sepharose 4B, 20 µg His-RELCH in 500 µl; immunoblot with RELCH and GST antibodies; conditions: both partners purified

T1 sequence (P84077 2-181 Q71L partner, one chain of several): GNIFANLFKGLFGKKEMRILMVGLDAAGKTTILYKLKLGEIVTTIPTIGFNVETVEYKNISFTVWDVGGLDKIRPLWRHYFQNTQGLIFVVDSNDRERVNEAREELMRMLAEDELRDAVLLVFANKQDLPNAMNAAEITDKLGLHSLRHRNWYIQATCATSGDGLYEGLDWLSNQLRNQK

Molecule: CC(C)[C@@H](C)/C=C/[C@@H](C)[C@H]1CC[C@H]2C3=CC=C4C[C@@H](O)CC[C@]4(C)C3=CC[C@]12C [DHE, dehydroergosterol]
liposome sterol transfer, DHE to dansyl-PE FRET [1]: the DHE transfer occurred in a RELCH dose-dependent manner

binding result [2]: binds
B1: Flag-OSBP, full length (natural protein, human, UniProt P22059 1-807, looked up)
chain: MAATELRGVVGPGPAAIAALGGGGAGPPVVGGGGGRGDAGPGSGAASGTVVAAAAGGPGPGAGGVAAAGPAPAPPTGGSGGSGAGGSGSAREGWLFKWTNYIKGYQRRWFVLSNGLLSYYRSKAEMRHTCRGTINLATANITVEDSCNFIISNGGAQTYHLKASSEVERQRWVTALELAKAKAVKMLAESDESGDEESVSQTDKTELQNTLRTLSSKVEDLSTCNDLIAKHGTALQRSLSELESLKLPAESNEKIKQVNERATLFRITSNAMINACRDFLMLAQTHSKKWQKSLQYERDQRIRLEETLEQLAKQHNHLERAFRGATVLPANTPGNVGSGKDQCCSGKGDMSDEDDENEFFDAPEIITMPENLGHKRTGSNISGASSDISLDEQYKHQLEETKKEKRTRIPYKPNYSLNLWSIMKNCIGKELSKIPMPVNFNEPLSMLQRLTEDLEYHELLDRAAKCENSLEQLCYVAAFTVSSYSTTVFRTSKPFNPLLGETFELDRLEENGYRSLCEQVSHHPPAAAHHAESKNGWTLRQEIKITSKFRGKYLSIMPLGTIHCIFHATGHHYTWKKVTTTVHNIIVGKLWIDQSGEIDIVNHKTGDKCNLKFVPYSYFSRDVARKVTGEVTDPSGKVHFALLGTWDEKMECFKVQPVIGENGGDARQRGHEAEESRVMLWKRNPLPKNAENMYYFSELALTLNAWESGTAPTDSRLRPDQRLMENGRWDEANAEKQRLEEKQRLSRKKREAEAMKATEDGTPYDPYKALWFERKKDPVTKELTHIYRGEYWECKEKQDWSSCPDIF
notes: OSBP, human, amplified from pOTB7-OSBP, in pcDNA5/FRT/TO-Flag; also called Flag-tagged OSBP; source: HEK293FT, transfected, in lysate; Flp-In–293, transfected, in lysate; not shown: Flag, N-terminal, kept

binding result [3]: binds
binding result [4]: binds
B2: Rab11a (Q70A)-His, loaded with GTP (natural protein, mouse, UniProt P62492 1-216, looked up)
chain: MGTRDDEYDYLFKVVLIGDSGVGKSNLLSRFTRNEFNLESKSTIGVEFATRSIQVDGKTIKAQIWDTAGAERYRAITSAYYRGAVGALLVYDIAKHLTYENVERWLKELRDHADSNIVIMLVGNKSDLRHLRAVPTDEARAFAEKNGLSFIETSALDSTNVEAAFQTILTEIYRIVSQKQMSDRRENDMSPSNNVVPIHVPPTTENKPKVQCCQNI
notes: Rab11a, mouse, GTP-locked mutant Q70A, cloned without a stop codon into pET28c; Loaded with GTP in the assays; on liposomes it is held through its His tag by DOGS-NTA(Ni); also called His6×-tagged Rab11a-GTP; Rab11a-GTP; source: E. coli Rosetta II (pET28c), purified (cOmplete His-tag purification resin, EDTA wash, nucleotide-free); not shown: His6, C-terminal, kept

binding result [5]: binds
B3: GST-Rab11a Q70A, loaded with GTP (natural protein, UniProt P62491 1-216, looked up)
chain: MGTRDDEYDYLFKVVLIGDSGVGKSNLLSRFTRNEFNLESKSTIGVEFATRSIQVDGKTIKAQIWDTAGAERYRAITSAYYRGAVGALLVYDIAKHLTYENVERWLKELRDHADSNIVIMLVGNKSDLRHLRAVPTDEARAFAEKNGLSFIETSALDSTNVEAAFQTILTEIYRIVSQKQMSDRRENDMSPSNNVVPIHVPPTTENKPKVQCCQNI
notes: Rab11a; GTP-locked mutant Q70A; the pFAT2 His-GST-Rab constructs were made as in Haas et al., 2005 and Yoshimura et al., 2007; also called GTP-loaded Rab11a; GST-Rab11-GTP; source: E. coli Rosetta II (pFAT2), purified (Ni-NTA agarose); not shown: GST, N-terminal, kept
